T1: ETS1 (Homo sapiens, UniProt P14921)
T1 sequence: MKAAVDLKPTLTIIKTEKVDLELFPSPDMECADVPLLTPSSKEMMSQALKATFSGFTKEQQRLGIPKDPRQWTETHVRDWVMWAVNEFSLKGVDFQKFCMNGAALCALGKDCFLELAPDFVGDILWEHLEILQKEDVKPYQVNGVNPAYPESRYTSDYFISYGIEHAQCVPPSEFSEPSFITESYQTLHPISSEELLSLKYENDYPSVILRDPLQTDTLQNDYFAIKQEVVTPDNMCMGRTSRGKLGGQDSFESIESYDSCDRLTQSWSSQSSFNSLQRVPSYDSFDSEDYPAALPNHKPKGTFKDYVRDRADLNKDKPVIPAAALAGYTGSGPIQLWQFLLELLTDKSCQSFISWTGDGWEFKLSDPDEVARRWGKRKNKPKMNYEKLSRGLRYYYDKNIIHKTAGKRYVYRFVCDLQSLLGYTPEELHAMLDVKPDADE

B1: Table S2 C row 144 (dsDNA)
DNA 1: ACCGTCAATCTCGACACCGCGGAGCACAATGCGTGC
DNA 2: GCACGCATTGTGCTCCGCGGTGTCGAGATTGACGGT
B2: Table S2 C row 109 (dsDNA)
DNA 1: CAAGCCCAAGAACGCTGTGGTTTTTGCAGACTCATA
DNA 2: TATGAGTCTGCAAAAACCACAGCGTTCTTGGGCTTG
B3: Table S2 C row 147 (dsDNA)
DNA 1: GGCCTCTGAGGAGCAGCCGCAGGAGGAGGAGGAGGT
DNA 2: ACCTCCTCCTCCTCCTGCGGCTGCTCCTCAGAGGCC
B4: Table S2 B row 1682 (dsDNA)
DNA 1: CTTGTTCTATTTCCTGTTTGTGCTGAGTGACTGTCT
DNA 2: AGACAGTCACTCAGCACAAACAGGAAATAGAACAAG
B5: Table S2 C row 90 (dsDNA)
DNA 1: ACTGAAAATCTGCCTTGTGGCTGCTTCTGGTACACA
DNA 2: TGTGTACCAGAAGCAGCCACAAGGCAGATTTTCAGT
B6: Table S2 C row 7 (dsDNA)
DNA 1: AAATAGCGCAGGTCAACCACAGACCCCAGCACTGCA
DNA 2: TGCAGTGCTGGGGTCTGTGGTTGACCTGCGCTATTT
B7: Table S2 C row 18 (dsDNA)
DNA 1: ACCCTCGAAGCTCTAACCACTGTGGGCTATTTTTGC
DNA 2: GCAAAAATAGCCCACAGTGGTTAGAGCTTCGAGGGT
B8: Table S2 C row 114 (dsDNA)
DNA 1: CTCTTCCATGCAGGCTGTGGTTGCCTTCAAATACCG
DNA 2: CGGTATTTGAAGGCAACCACAGCCTGCATGGAAGAG
B9: Table S2 C row 56 (dsDNA)
DNA 1: TGTCTATCGATTAAAACCACTGGTAAGAGCCATTGA
DNA 2: TCAATGGCTCTTACCAGTGGTTTTAATCGATAGACA
B10: Table S2 C row 190 (dsDNA)
DNA 1: TAAGAGAAAGCGCAAACCGCACAAGACCAGTTCAAA
DNA 2: TTTGAACTGGTCTTGTGCGGTTTGCGCTTTCTCTTA
B11: Table S2 C row 171 (dsDNA)
DNA 1: GACTGGTGGATCACTTGAGGTCAGTTTGAGACCAGC
DNA 2: GCTGGTCTCAAACTGACCTCAAGTGATCCACCAGTC
B12: Table S2 C row 110 (dsDNA)
DNA 1: GGATTCAACATTCCTTGTGGGCTGCTGGCCCCAGAC
DNA 2: GTCTGGGGCCAGCAGCCCACAAGGAATGTTGAATCC
B13: Table S2 C row 86 (dsDNA)
DNA 1: CGTCACTTCTGGAGCTGCGGTCGGGATCTGGGAGGA
DNA 2: TCCTCCCAGATCCCGACCGCAGCTCCAGAAGTGACG
B14: Table S2 C row 83 (dsDNA)
DNA 1: AGAACTTAAGATCTCTGTGGCTTGTGTGTGTGTGTA
DNA 2: TACACACACACACAAGCCACAGAGATCTTAAGTTCT
B15: Table S2 B row 3812 (dsDNA)
DNA 1: GAGTCGCTTCCGCTCCCGCCCCGCTCTCTGGCGTAG
DNA 2: CTACGCCAGAGAGCGGGGCGGGAGCGGAAGCGACTC
B16: Table S2 C row 70 (dsDNA)
DNA 1: AAAGTCATTTAAGTGACCACACTTTATAGGCTTGCC
DNA 2: GGCAAGCCTATAAAGTGTGGTCACTTAAATGACTTT
B17: Table S2 C row 102 (dsDNA)
DNA 1: GGTCAGGAGGGATGAACCACCGCTTACTCGTTCTTC
DNA 2: GAAGAACGAGTAAGCGGTGGTTCATCCCTCCTGACC
B18: Table S2 C row 21 (dsDNA)
DNA 1: TTGCAGAGTTAGCTAGCCACAGGCAAGTCTCCATTG
DNA 2: CAATGGAGACTTGCCTGTGGCTAGCTAACTCTGCAA
B19: Table S2 C row 40 (dsDNA)
DNA 1: CTTCACGGCTAGTTCTGTGGGTGTCCCACTTAGTTT
DNA 2: AAACTAAGTGGGACACCCACAGAACTAGCCGTGAAG
B20: Table S2 C row 59 (dsDNA)
DNA 1: CAGACAGTAACAAATGGTGGTTGCCGTCATGTGAAG
DNA 2: CTTCACATGACGGCAACCACCATTTGTTACTGTCTG
B21: Table S2 C row 37 (dsDNA)
DNA 1: CTGGTGCAGAAAAAAACCACACAAGCCATTGGGTAG
DNA 2: CTACCCAATGGCTTGTGTGGTTTTTTTCTGCACCAG
B22: Table S2 C row 79 (dsDNA)
DNA 1: CCCATCAGCAGAAAAACCACAGCAAGCTTAATGTGC
DNA 2: GCACATTAAGCTTGCTGTGGTTTTTCTGCTGATGGG
B23: Table S2 C row 65 (dsDNA)
DNA 1: GTCAGCTATAGTGACACCACAAGGCCTGAAGAGGGC
DNA 2: GCCCTCTTCAGGCCTTGTGGTGTCACTATAGCTGAC
B24: Table S2 C row 24 (dsDNA)
DNA 1: GACGGGCGCGCGGCTTGCGGGCGGCGGGGCGCTGGG
DNA 2: CCCAGCGCCCCGCCGCCCGCAAGCCGCGCGCCCGTC
B25: Table S2 C row 178 (dsDNA)
DNA 1: GGCTGACTCTGTATCTGTGGGTGCTTCAGGGCCAAC
DNA 2: GTTGGCCCTGAAGCACCCACAGATACAGAGTCAGCC
B26: Table S2 B row 2515 (dsDNA)
DNA 1: CGGTGGCTTCCGGCCCATGGCGCTGGTTGGTGACTC
DNA 2: GAGTCACCAACCAGCGCCATGGGCCGGAAGCCACCG
B27: Table S2 C row 5 (dsDNA)
DNA 1: TAGTGTGAATCCCCGCCCACAGAGGGGCGGCACGTT
DNA 2: AACGTGCCGCCCCTCTGTGGGCGGGGATTCACACTA
B28: Table S2 C row 71 (dsDNA)
DNA 1: CTGGGTTGGATGACCTGCGGTGGAACAGATGGCTCC
DNA 2: GGAGCCATCTGTTCCACCGCAGGTCATCCAACCCAG
B29: Table S2 C row 156 (dsDNA)
DNA 1: AGGTGTGCTCTCCACCGCGGTTCACAAGGTGTCTGC
DNA 2: GCAGACACCTTGTGAACCGCGGTGGAGAGCACACCT
B30: Table S2 C row 75 (dsDNA)
DNA 1: AGCTCTGAGAATCATTGTGGCCACACTGTCATGGTC
DNA 2: GACCATGACAGTGTGGCCACAATGATTCTCAGAGCT
B31: Table S2 C row 124 (dsDNA)
DNA 1: CGCAGCTCCCCACTGTGCGGTTATCTAGGCCAGCAC
DNA 2: GTGCTGGCCTAGATAACCGCACAGTGGGGAGCTGCG
B32: Table S2 C row 129 (dsDNA)
DNA 1: GCAGCTGTAGAGGCCTGAGGTTTACCTAATCTGCTA
DNA 2: TAGCAGATTAGGTAAACCTCAGGCCTCTACAGCTGC
B33: Table S2 C row 43 (dsDNA)
DNA 1: GGCTTTCCAAGCTAGTGTGGTCCACTTGCTCCCTCA
DNA 2: TGAGGGAGCAAGTGGACCACACTAGCTTGGAAAGCC
B34: Table S2 C row 55 (dsDNA)
DNA 1: CTGACATTTAAGCTCACCACATGTGGGATAGTTAGT
DNA 2: ACTAACTATCCCACATGTGGTGAGCTTAAATGTCAG
B35: Table S2 C row 57 (dsDNA)
DNA 1: CACAGAACTGACCAGACCACATGGAGGCCAATCAAA
DNA 2: TTTGATTGGCCTCCATGTGGTCTGGTCAGTTCTGTG
B36: Table S2 C row 87 (dsDNA)
DNA 1: GAATGTCTTTAAAAAACCACAGAATTGGGCTGGGCG
DNA 2: CGCCCAGCCCAATTCTGTGGTTTTTTAAAGACATTC
B37: Table S2 B row 2766 (dsDNA)
DNA 1: TTTGCAAATCCAGAGCGGAGACTTCCGGTGGCCTAG
DNA 2: CTAGGCCACCGGAAGTCTCCGCTCTGGATTTGCAAA
B38: Table S2 C row 191 (dsDNA)
DNA 1: CCAAAAAGAGAGGCAGCCACAAGATCTTCTAAAAGG
DNA 2: CCTTTTAGAAGATCTTGTGGCTGCCTCTCTTTTTGG
B39: Table S2 C row 115 (dsDNA)
DNA 1: TGGGGCTTCTCGTTGGCCACAAGTTCAATTTGAGCC
DNA 2: GGCTCAAATTGAACTTGTGGCCAACGAGAAGCCCCA
B40: Table S2 C row 74 (dsDNA)
DNA 1: GTTAAAACAAAGCAAGCCACAGTGTGTGTCCACAGA
DNA 2: TCTGTGGACACACACTGTGGCTTGCTTTGTTTTAAC
B41: Table S2 C row 14 (dsDNA)
DNA 1: CTTGCCTAAGACATGCCCACAGCTGCACAGATAAGA
DNA 2: TCTTATCTGTGCAGCTGTGGGCATGTCTTAGGCAAG
B42: Table S2 C row 6 (dsDNA)
DNA 1: TAAGCCCCGCGTGCCTGTGGGTATTTGAAAGCTGAA
DNA 2: TTCAGCTTTCAAATACCCACAGGCACGCGGGGCTTA

Biological target: T1, ETS1
Test: gcPBM; 1 nM ETS1
Settings: tags: N-terminal GST (pDEST15), kept (PMC6008103); label: surface-attached array probe

Binder | binding signal
B1 | 352 PBM fluorescence, median of replicate spots
B2 | 353 PBM fluorescence, median of replicate spots
B3 | 353 PBM fluorescence, median of replicate spots
B4 | 15900 PBM fluorescence, median of replicate spots
B5 | 355 PBM fluorescence, median of replicate spots
B6 | 355 PBM fluorescence, median of replicate spots
B7 | 356 PBM fluorescence, median of replicate spots
B8 | 357 PBM fluorescence, median of replicate spots
B9 | 359 PBM fluorescence, median of replicate spots
B10 | 359 PBM fluorescence, median of replicate spots
B11 | 359 PBM fluorescence, median of replicate spots
B12 | 359 PBM fluorescence, median of replicate spots
B13 | 360 PBM fluorescence, median of replicate spots
B14 | 361 PBM fluorescence, median of replicate spots
B15 | 15300 PBM fluorescence, median of replicate spots
B16 | 361 PBM fluorescence, median of replicate spots
B17 | 362 PBM fluorescence, median of replicate spots
B18 | 364 PBM fluorescence, median of replicate spots
B19 | 366 PBM fluorescence, median of replicate spots
B20 | 367 PBM fluorescence, median of replicate spots
B21 | 369 PBM fluorescence, median of replicate spots

Binder | binding signal
B22 | 369 PBM fluorescence, median of replicate spots
B23 | 370 PBM fluorescence, median of replicate spots
B24 | 371 PBM fluorescence, median of replicate spots
B25 | 371 PBM fluorescence, median of replicate spots
B26 | 14700 PBM fluorescence, median of replicate spots
B27 | 372 PBM fluorescence, median of replicate spots
B28 | 374 PBM fluorescence, median of replicate spots
B29 | 376 PBM fluorescence, median of replicate spots
B30 | 376 PBM fluorescence, median of replicate spots
B31 | 376 PBM fluorescence, median of replicate spots
B32 | 377 PBM fluorescence, median of replicate spots
B33 | 378 PBM fluorescence, median of replicate spots
B34 | 379 PBM fluorescence, median of replicate spots
B35 | 379 PBM fluorescence, median of replicate spots
B36 | 379 PBM fluorescence, median of replicate spots
B37 | 14400 PBM fluorescence, median of replicate spots
B38 | 380 PBM fluorescence, median of replicate spots
B39 | 381 PBM fluorescence, median of replicate spots
B40 | 382 PBM fluorescence, median of replicate spots
B41 | 383 PBM fluorescence, median of replicate spots
B42 | 385 PBM fluorescence, median of replicate spots

From paper PMC10681739, “High-throughput data and modeling reveal insights into the mechanisms of cooperative DNA-binding by transcription factor proteins”
